Source: paper PMC4445282, “Alpha-L-Fucosidase Isoenzyme iso2 from Paenibacillus thiaminolyticus” (BMC Biotechnology, 2015)

Substrate: C[C@@H]1O[C@@H](Oc2ccc([N+](=O)[O-])cc2)[C@@H](O)[C@H](O)[C@@H]1O
Experiment: purified protein
Format: biochemical, Paenibacillus thiaminolyticus
Conditions: 50 mM phosphate pH 7.0, 37 °C (standard assay), substrate 0.01-35 mmol/L

B1: α-L-fucosidase iso2 (Paenibacillus thiaminolyticus) (protein)
chain: MRYRQVHLDFHTSEHISDIGRNFSKKNFQEMLQLGHVNSITVFAKCHHGWAYFPSATNEIHPRLDFDLLGAQIEAAHEIGVKVPIYISVGFDEKLAWEKPQWLMRDEADRMNWVDSFMKPGYHQFCLNTPYLDLVIEQVQEVVRKYDGDGIFLDIVGERTCYCTTCLKQMQADGLDPHNKEDVIANGRRIYANYTTRIREAIDAIKPGLPVFHNAGHIHQGRRDLMGMNSHLELESLPTGGWGYDHFPLSARYAQPTGFHFLGMTGKFHTFWGEFGGYKHPNALRYETALSLANGARCSIGDQLHPGGQMDRATYELIGKAYAEVEAKEAWCVNAVNLADVALLTVEAAGVQQESGAMYSGKVDMGAVRMLLEGKILFDIVDLESDWSGYKVLILPDSIVMKDTILPKVEAFLAAGGKVLASGRSGLNVELTRQMLPLGFTDSGLNPFRPDYFRPLCDGMANLGEAAYVMYGDGRRIELTDGTELGRREDPYFNRQAFRFCSHQHAPSSEQEGGPGMVESAQGIYIAWNVFEDYATKGSLILKEMVLFALRRLLGEQITLKTTLPAQGVTTLQHQAAERRYINHLLYASPVKRGERVEIIEDMIPLQQVEVQLQLPVTDVKRVYLAPQMTEIEFKASGGDVQFTVPQLECHQMVVVEYNE
notes: His-tagged fusion from pET16b-αLF2 (NdeI/XhoI), tag kept; E. coli BL21(DE3); Ni-NTA; primers encode start MRYRQVH and end VVEYNE
In the case of B1, the Km is reported as 520 ± 50 µM, the kcat is reported as 111 ± 3 s⁻¹ and the kcat/Km is reported as 213 ± 30 (mmol/L)^-1 s^-1.
